Reference: patent publication EP4745153A1, “GLP-1, GIP AND GCG RECEPTOR […] USE THEREOF” (Jiangsu Hengrui Pharmaceuticals Co., Ltd., priority 2023, dated 2025)
Read-outs that look alike come from different tables or passages of the source. Starred links: 1 amine or outer side, 2 acyl side, 3 side chain; linkers in the order of their positions; H or OH if unused. Non-standard residues stand in square brackets, D forms with d. Groups on a side chain read outwards from the residue. No end group written: not given here. *: point of attachment. C20 diacid = O=C(O)CCCCCCCCCCCCCCCCCCC(=O)*; C17 diacid = O=C(O)CCCCCCCCCCCCCCCC(=O)*; γGlu = O=C(O)[C@H](CCC(=O)[*:2])N[*:1]; αMeY = C[C@](N)(Cc1ccc(O)cc1)C(=O)O; αMeK = C[C@](N)(CCCCN)C(=O)O; Iva = CC[C@](C)(N)C(=O)O; AEEA = NCCOCCOCC(=O)O; Aib = CC(C)(N)C(=O)O

Tests used:
Assay in all cases: cell-based or functional assay
[1] = target: T1, human glucose-dependent insulinotropic polypeptide receptor (human, UniProt P48546 22-466)
T1 sequence (looked up): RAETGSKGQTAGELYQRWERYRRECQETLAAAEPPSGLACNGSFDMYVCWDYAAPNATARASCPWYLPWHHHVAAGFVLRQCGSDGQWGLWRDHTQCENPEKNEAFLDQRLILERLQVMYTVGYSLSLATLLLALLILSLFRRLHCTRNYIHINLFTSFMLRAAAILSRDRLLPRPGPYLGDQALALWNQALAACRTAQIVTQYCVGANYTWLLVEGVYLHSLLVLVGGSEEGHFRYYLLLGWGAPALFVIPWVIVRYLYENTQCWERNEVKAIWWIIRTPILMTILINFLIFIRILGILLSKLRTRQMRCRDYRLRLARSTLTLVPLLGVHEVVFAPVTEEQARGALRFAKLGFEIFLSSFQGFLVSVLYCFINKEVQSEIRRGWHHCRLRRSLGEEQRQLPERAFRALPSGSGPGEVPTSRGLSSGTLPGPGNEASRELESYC

human glucagon receptor [2] = target: T2, human glucagon receptor (human, UniProt P47871 26-477)
T2 sequence (P47871 26-477): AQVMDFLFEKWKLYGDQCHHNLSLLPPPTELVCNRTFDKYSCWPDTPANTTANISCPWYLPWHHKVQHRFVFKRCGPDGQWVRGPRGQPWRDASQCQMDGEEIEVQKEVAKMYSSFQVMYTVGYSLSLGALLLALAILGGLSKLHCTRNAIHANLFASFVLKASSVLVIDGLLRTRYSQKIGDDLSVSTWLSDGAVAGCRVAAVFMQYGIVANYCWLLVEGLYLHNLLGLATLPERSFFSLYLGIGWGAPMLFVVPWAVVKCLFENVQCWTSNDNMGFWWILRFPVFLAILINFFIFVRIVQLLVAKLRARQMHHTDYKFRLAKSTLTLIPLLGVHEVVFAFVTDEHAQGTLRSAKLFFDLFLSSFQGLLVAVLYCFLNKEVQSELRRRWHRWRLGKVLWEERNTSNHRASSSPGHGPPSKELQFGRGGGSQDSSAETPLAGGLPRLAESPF

[3] = target: T3, human glucagon-like peptide-1 receptor (human, UniProt P43220 24-463)
[4] = target: T1, human glucose-dependent insulinotropic …; remark: listed apart in the source
human glucagon receptor [5] = target: T2, human glucagon receptor; remark: listed apart in the source
[6] = target: T3, human glucagon-like peptide-1 receptor; remark: listed apart in the source

B1: Compound No. 0127 (peptide)
peptide: Y[Aib]QGTFTSDYS[αMeK]LLEK([AEEA-AEEA-γGlu-C20 diacid])KAA[Iva]EFVEWLLAGGPSSGAPPPS-NH2
- Activity against human GIPR (EC50 nM) [1]: 0.0007 nM
- Activity against human GCGR (EC50 nM) (human glucagon receptor [2]): 0.037 nM
- Activity against human GLP-1R (EC50 nM) [3]: 0.132 nM

B2: Compound No. 0129 (peptide)
peptide: Y[Aib]QGTFTSDYS[αMeK]ILEK([AEEA-AEEA-γGlu-C20 diacid])KAA[Iva]EFVEWLLAGGPSSGAPPPS-NH2
- Activity against human GIPR (EC50 nM) [1]: 0.002 nM
- Activity against human GCGR (EC50 nM) (human glucagon receptor [2]): 0.067 nM
- Activity against human GLP-1R (EC50 nM) [3]: 0.159 nM

B3: Compound No. 0130 (peptide)
peptide: H[Aib]HGTFTSDYS[αMeK]ILEK([AEEA-AEEA-γGlu-C20 diacid])QAA[Iva]EFVEWLLAGGPSSGAPPPS-NH2
- Activity against human GIPR (EC50 nM) [1]: 0.0005 nM
- Activity against human GCGR (EC50 nM) (human glucagon receptor [2]): 0.03 nM
- Activity against human GLP-1R (EC50 nM) [3]: 0.048 nM

B4: Compound No. 0131 (peptide)
peptide: H[Aib]HGTFTSDYS[αMeK]LLEK([AEEA-AEEA-γGlu-C20 diacid])KAA[Iva]EFVEWLIEGGPSSGAPPPS-NH2
modifications: N-terminus assumed
SMILES: CC[C@H](C)[C@H](NC(=O)[C@H](CC(C)C)NC(=O)[C@H](Cc1c[nH]c2ccccc12)NC(=O)[C@H](CCC(=O)O)NC(=O)[C@@H](NC(=O)[C@H](Cc1ccccc1)NC(=O)[C@H](CCC(=O)O)NC(=O)[C@](C)(CC)NC(=O)[C@H](C)NC(=O)[C@H](C)NC(=O)[C@H](CCCCN)NC(=O)[C@H](CCCCNC(=O)COCCOCCNC(=O)COCCOCCNC(=O)CC[C@H](NC(=O)CCCCCCCCCCCCCCCCCCC(=O)O)C(=O)O)NC(=O)[C@H](CCC(=O)O)NC(=O)[C@H](CC(C)C)NC(=O)[C@H](CC(C)C)NC(=O)[C@](C)(CCCCN)NC(=O)[C@H](CO)NC(=O)[C@H](Cc1ccc(O)cc1)NC(=O)[C@H](CC(=O)O)NC(=O)[C@H](CO)NC(=O)[C@@H](NC(=O)[C@H](Cc1ccccc1)NC(=O)[C@@H](NC(=O)CNC(=O)[C@H](Cc1c[nH]cn1)NC(=O)C(C)(C)NC(=O)[C@@H](N)Cc1c[nH]cn1)[C@@H](C)O)[C@@H](C)O)C(C)C)C(=O)N[C@@H](CCC(=O)O)C(=O)NCC(=O)NCC(=O)N1CCC[C@H]1C(=O)N[C@@H](CO)C(=O)N[C@@H](CO)C(=O)NCC(=O)N[C@@H](C)C(=O)N1CCC[C@H]1C(=O)N1CCC[C@H]1C(=O)N1CCC[C@H]1C(=O)N[C@@H](CO)C(N)=O
- Activity against human GIPR (EC50 nM) [1]: 0.0007 nM
- Activity against human GCGR (EC50 nM) (human glucagon receptor [2]): 0.026 nM
- Activity against human GLP-1R (EC50 nM) [3]: 0.02 nM

B5: Compound No. 0110 (peptide)
peptide: H[Aib]HGTFTSDYSKYLEK([AEEA-AEEA-γGlu-C20 diacid])K[Aib]AQEFVEWLLAGGPSSGAPPPS-NH2
modifications: N-terminus assumed
SMILES: CC(C)C[C@H](NC(=O)[C@H](CC(C)C)NC(=O)[C@H](Cc1c[nH]c2ccccc12)NC(=O)[C@H](CCC(=O)O)NC(=O)[C@@H](NC(=O)[C@H](Cc1ccccc1)NC(=O)[C@H](CCC(=O)O)NC(=O)[C@H](CCC(N)=O)NC(=O)[C@H](C)NC(=O)C(C)(C)NC(=O)[C@H](CCCCN)NC(=O)[C@H](CCCCNC(=O)COCCOCCNC(=O)COCCOCCNC(=O)CC[C@H](NC(=O)CCCCCCCCCCCCCCCCCCC(=O)O)C(=O)O)NC(=O)[C@H](CCC(=O)O)NC(=O)[C@H](CC(C)C)NC(=O)[C@H](Cc1ccc(O)cc1)NC(=O)[C@H](CCCCN)NC(=O)[C@H](CO)NC(=O)[C@H](Cc1ccc(O)cc1)NC(=O)[C@H](CC(=O)O)NC(=O)[C@H](CO)NC(=O)[C@@H](NC(=O)[C@H](Cc1ccccc1)NC(=O)[C@@H](NC(=O)CNC(=O)[C@H](Cc1c[nH]cn1)NC(=O)C(C)(C)NC(=O)[C@@H](N)Cc1c[nH]cn1)[C@@H](C)O)[C@@H](C)O)C(C)C)C(=O)N[C@@H](C)C(=O)NCC(=O)NCC(=O)N1CCC[C@H]1C(=O)N[C@@H](CO)C(=O)N[C@@H](CO)C(=O)NCC(=O)N[C@@H](C)C(=O)N1CCC[C@H]1C(=O)N1CCC[C@H]1C(=O)N1CCC[C@H]1C(=O)N[C@@H](CO)C(N)=O
- Activity against human GIPR (EC50 nM) [4]: 0.043 nM
- Activity against human GCGR (EC50 nM) (human glucagon receptor [5]): 0.044 nM
- Activity against human GLP-1R (EC50 nM) [6]: 0.016 nM

B6: Compound No. 0104 (peptide)
peptide: H[Aib]HGTFTSDYS[αMeK]YLEK([AEEA-AEEA-γGlu-C20 diacid])KAAQEFVEWLLAGGPSSGAPPPS-NH2
modifications: N-terminus assumed
SMILES: CC(C)C[C@H](NC(=O)[C@H](CC(C)C)NC(=O)[C@H](Cc1c[nH]c2ccccc12)NC(=O)[C@H](CCC(=O)O)NC(=O)[C@@H](NC(=O)[C@H](Cc1ccccc1)NC(=O)[C@H](CCC(=O)O)NC(=O)[C@H](CCC(N)=O)NC(=O)[C@H](C)NC(=O)[C@H](C)NC(=O)[C@H](CCCCN)NC(=O)[C@H](CCCCNC(=O)COCCOCCNC(=O)COCCOCCNC(=O)CC[C@H](NC(=O)CCCCCCCCCCCCCCCCCCC(=O)O)C(=O)O)NC(=O)[C@H](CCC(=O)O)NC(=O)[C@H](CC(C)C)NC(=O)[C@H](Cc1ccc(O)cc1)NC(=O)[C@](C)(CCCCN)NC(=O)[C@H](CO)NC(=O)[C@H](Cc1ccc(O)cc1)NC(=O)[C@H](CC(=O)O)NC(=O)[C@H](CO)NC(=O)[C@@H](NC(=O)[C@H](Cc1ccccc1)NC(=O)[C@@H](NC(=O)CNC(=O)[C@H](Cc1c[nH]cn1)NC(=O)C(C)(C)NC(=O)[C@@H](N)Cc1c[nH]cn1)[C@@H](C)O)[C@@H](C)O)C(C)C)C(=O)N[C@@H](C)C(=O)NCC(=O)NCC(=O)N1CCC[C@H]1C(=O)N[C@@H](CO)C(=O)N[C@@H](CO)C(=O)NCC(=O)N[C@@H](C)C(=O)N1CCC[C@H]1C(=O)N1CCC[C@H]1C(=O)N1CCC[C@H]1C(=O)N[C@@H](CO)C(N)=O
- Activity against human GIPR (EC50 nM) [4]: 0.016 nM
- Activity against human GCGR (EC50 nM) (human glucagon receptor [5]): 0.037 nM
- Activity against human GLP-1R (EC50 nM) [6]: 0.01 nM

B7: Compound No. 0132 (peptide)
peptide: H[Aib]HGTFTSDYS[αMeK]ILEK([AEEA-AEEA-γGlu-C20 diacid])KAA[Iva]EFVEWLIEGGPSSGAPPPS-NH2
modifications: N-terminus assumed
SMILES: CC[C@H](C)[C@H](NC(=O)[C@H](CC(C)C)NC(=O)[C@H](Cc1c[nH]c2ccccc12)NC(=O)[C@H](CCC(=O)O)NC(=O)[C@@H](NC(=O)[C@H](Cc1ccccc1)NC(=O)[C@H](CCC(=O)O)NC(=O)[C@](C)(CC)NC(=O)[C@H](C)NC(=O)[C@H](C)NC(=O)[C@H](CCCCN)NC(=O)[C@H](CCCCNC(=O)COCCOCCNC(=O)COCCOCCNC(=O)CC[C@H](NC(=O)CCCCCCCCCCCCCCCCCCC(=O)O)C(=O)O)NC(=O)[C@H](CCC(=O)O)NC(=O)[C@H](CC(C)C)NC(=O)[C@@H](NC(=O)[C@](C)(CCCCN)NC(=O)[C@H](CO)NC(=O)[C@H](Cc1ccc(O)cc1)NC(=O)[C@H](CC(=O)O)NC(=O)[C@H](CO)NC(=O)[C@@H](NC(=O)[C@H](Cc1ccccc1)NC(=O)[C@@H](NC(=O)CNC(=O)[C@H](Cc1c[nH]cn1)NC(=O)C(C)(C)NC(=O)[C@@H](N)Cc1c[nH]cn1)[C@@H](C)O)[C@@H](C)O)[C@@H](C)CC)C(C)C)C(=O)N[C@@H](CCC(=O)O)C(=O)NCC(=O)NCC(=O)N1CCC[C@H]1C(=O)N[C@@H](CO)C(=O)N[C@@H](CO)C(=O)NCC(=O)N[C@@H](C)C(=O)N1CCC[C@H]1C(=O)N1CCC[C@H]1C(=O)N1CCC[C@H]1C(=O)N[C@@H](CO)C(N)=O
- Activity against human GIPR (EC50 nM) [1]: 0.001 nM
- Activity against human GCGR (EC50 nM) (human glucagon receptor [2]): 0.03 nM
- Activity against human GLP-1R (EC50 nM) [3]: 0.024 nM

B8: Compound No. 0106 (peptide)
peptide: H[Aib]HGTFTSDYSK[αMeY]LEK([AEEA-AEEA-γGlu-C17 diacid])KAAQEFVEWLLAGGPSSGAPPPS-NH2
modifications: N-terminus assumed
SMILES: CC(C)C[C@H](NC(=O)[C@H](CC(C)C)NC(=O)[C@H](Cc1c[nH]c2ccccc12)NC(=O)[C@H](CCC(=O)O)NC(=O)[C@@H](NC(=O)[C@H](Cc1ccccc1)NC(=O)[C@H](CCC(=O)O)NC(=O)[C@H](CCC(N)=O)NC(=O)[C@H](C)NC(=O)[C@H](C)NC(=O)[C@H](CCCCN)NC(=O)[C@H](CCCCNC(=O)COCCOCCNC(=O)COCCOCCNC(=O)CC[C@H](NC(=O)CCCCCCCCCCCCCCCC(=O)O)C(=O)O)NC(=O)[C@H](CCC(=O)O)NC(=O)[C@H](CC(C)C)NC(=O)[C@](C)(Cc1ccc(O)cc1)NC(=O)[C@H](CCCCN)NC(=O)[C@H](CO)NC(=O)[C@H](Cc1ccc(O)cc1)NC(=O)[C@H](CC(=O)O)NC(=O)[C@H](CO)NC(=O)[C@@H](NC(=O)[C@H](Cc1ccccc1)NC(=O)[C@@H](NC(=O)CNC(=O)[C@H](Cc1c[nH]cn1)NC(=O)C(C)(C)NC(=O)[C@@H](N)Cc1c[nH]cn1)[C@@H](C)O)[C@@H](C)O)C(C)C)C(=O)N[C@@H](C)C(=O)NCC(=O)NCC(=O)N1CCC[C@H]1C(=O)N[C@@H](CO)C(=O)N[C@@H](CO)C(=O)NCC(=O)N[C@@H](C)C(=O)N1CCC[C@H]1C(=O)N1CCC[C@H]1C(=O)N1CCC[C@H]1C(=O)N[C@@H](CO)C(N)=O
- Activity against human GIPR (EC50 nM) [4]: 0.027 nM
- Activity against human GCGR (EC50 nM) (human glucagon receptor [5]): 0.095 nM
- Activity against human GLP-1R (EC50 nM) [6]: 0.03 nM
